In US20250114467A1 (SHANGHAI FUDAN ZHANGJIANG BIO PHARMACEUTICAL, published 2025):
Where a chain is given by its changes, count along the chain named.

B1: FDA027 (antibody, human IgG1, kappa, V domains shown)
VH: QVQLVQSGAEVKKPGASVKVSCKASGYTFTNYGMNWVRQAPGQGLEWMGWINTYTGEPTYADDFKGRVTMTTDTSTSTAYMELRSLRSDDTAVYYCARIGDSSPSDYWGQGTLVTVSS
VL: EIVMTQSPATLSVSPGERATLSCKASQSVSNDVVWYQQKPGQAPRLLIYYASNRYTGIPARFSGSGSGTEFTLTISSLQSEDFAVYYCQQDYTSPWTFGQGTKLEIKR
notes: also called anti-DLL3 antibody FDA027
B2: 4H7 (antibody, V domains shown)
VH: EVQLQQSGAELVRPGALVKLSCKASGFNFKDYYIHWVKQRPELGLEWIGWIDPENGNAIYDPKFQDKASITADTSSNTAYLHLSSLTSEGTAVYYCASEDAYYPFAYWGQGTLVTVSS
VL: DIVMSQSPSSLAVSVGEKVTMRCKSSQSLLYSSNQKNYLAWYQQKPGQSPKLLIYWASTRESGVPDRFTGSGSGTDFTLTISSVKAEDLAVYFCQQYYSYRTFGGGTKLEIK
notes: Murine hybridoma monoclonal antibody; also called hybridoma antibody clone 4H7
B3: 15G2 (antibody, V domains shown)
VH: EVQLQQSGPELEKPGASVRISCKASGYSFTDYNMHWVKQSNGKSLEWIGNIDPYYGGTNYNQKFEGKATLTVDKSSSTAYMQLKSLTSEDSAVYYCARGGNNYGDYWGQGTTLTVSS
VL: DIQMTQSPASLAASVGETVTITCRASENIYYSLAWYQQKQGKSPQLLIFNANSLEDGVPSRFSGSGSGTQYSMKINSMQPEDTATYFCKQAYDVPWTFGGGTKLEIK
notes: Murine hybridoma monoclonal antibody; also called hybridoma antibody clone 15G2
B4: 13C2 (antibody, V domains shown)
VH: EVKLVESGGGLVKPGGSLKLSCAASGFAFSSYDMSWVRQTPEKRLEWVATISSGGSYTYYPDSVKGRFTISRDNGRNTLYLQMSSLRSEDTALYYCASPLLGLRFAYWGQGTLVTVSA
VL: QAVVTQESALTTSPGETVTLTCRSSTGAVTTINYANWVQEKPDHLFTGLIGGTNNRAPGVPARFSGSLIGDKAALTITGAQTEDEAIYFCALYYSNHWVFGGGTKLTVL
notes: Murine hybridoma monoclonal antibody; also called hybridoma antibody clone 13C2
B5: 36H10 (antibody, V domains shown)
VH: EVQFQQSGPELVKPGASVKISCKASGYTFTDYNIHWVRQSQGKSLEWIGLIYPFNGGIVYNQKFKSKATLTVDNSSTSAYMELRSLSSEDSAVYFCARLNWEGYWGQGSTLIVSS
VL: DIKMTQSPSSIYAFLGERVTITCKASQDINSYLSWFQQKPGKSPKTLIYRANRLVGGVPSRFSGSGSGQDYSLTISSLEYEDVGDYYCLQYAEFPYTFGGGTKLEIK
notes: Murine hybridoma monoclonal antibody; also called hybridoma antibody clone 36H10
B6: 6A2 (antibody, V domains shown)
VH: EVQLQQSGPELVKPGASVKISCKASGYTFTDYNMNWVKQSQGKSLEWIGYIYPYNGGTGYNQKFKTKATLTVDNSSSTAYMEFRSLTSEDSAVYYCARSDPYYTMDYWGQGTSVTVSS
VL: IIVMTQTPKFLLVSAGDRVTISCKASQSVNNDVAWYQQKPGQSPKLLIYFTSNRFTGVPDRFTGSGYGTDFTFTISSVQAEDLAVYFCQQDHNSPYTFGGGTKLEIK
notes: Murine hybridoma monoclonal antibody; also called hybridoma antibody clone 6A2
B7: 10B1 (antibody, V domains shown)
VH: DVKLVESGGGLVKPGGSLKLSCAASGFTFSNYTISWVRQTPEKRLEWVATFSSGGSYTYYSDSVKGRFTISRDNAKNTLYLQMSSLKSEDTAMYYCSRDRRSDGYYHLYAMDYWGQGTSVTVSS
VL: DIQMTQTTSSLSASLGDRVTISCRASQDISHYLNWYQQKPDGTVKLLIYYTSRLHSGVPSRFSGSGSGTAYSLTISNLEQEDIATYFCQQGYTLPLTFGAGTKLELK
notes: Murine hybridoma monoclonal antibody; also called hybridoma antibody clone 10B1
B8: 1A5 (antibody, V domains shown)
VH: EVQLQQSGPELVKPGASVKISCKTSGYTFTESAMHWVKQSHGKSLEWIGGINPNNGGISYSQKFKGKATLTVDKSSSTAYMELRSLTSEDSAVYYCGSSYYRDYFDYWGQGTTLTVSS
VL: NIVMTQSPESMSMSVGERVTLSCKASENVGTYVSWYQQKPDQSPKLLIYGASNRYTGVPDRFTGSGSATHFTLTISSVQAEDLADYHCGQSYSYPLTFGAGTKLELK
notes: also called hybridoma antibody clone 1A5
B9: 33F11 (antibody, V domains shown)
VH: B8 VH with S32N, A33T, K43E, N54R, G57V, I58T, S61N, G97T, S98N, S99T
VL: B8 VL with E9K, A68P, H70D, S77R, V78M, D85H, H87Y, S91T, S93T
notes: Murine hybridoma monoclonal antibody; also called hybridoma antibody clone 33F11
B10: 19C7 (antibody, V domains shown)
VH: EVQLQQSGPELVRPGASVRMSCKASGYTFTYYVMHWVKQKPGLGLEWIGYINPYNDGTEYNEKFKGKATLTSDKSSSTAFMELSSLTSEDSAVYYCARWLLREYAMDYWGQGTSVTVSS
VL: DIQMTQSPASLSASVGETVTITCRASDNIHNYLAWYQQKQGKSPQLLVYNAKTLADGVPSRFSGSGSGTQYSLKINSLQPEDFGSYYCQHFWSTPWTFGGGTKLEIK
notes: Murine hybridoma monoclonal antibody; also called hybridoma antibody clone 19C7
B11: 26D9 (antibody, V domains shown)
VH: EVQLQQSGPELVKPGASVKMSCKASGYTFTTYVMHWVKQKPGQGLEWIGYINPYNDDTNYNEKFKGKATLTSDKSSSTAYMELSSLTSEDSAVYYCARWGLTGTGDYYAMDYWGQGTSVTVSS
VL: B10 VL with D27G, I29V, K42R, L46V, Q79L, S93T, K103T
notes: Murine hybridoma monoclonal antibody; also called hybridoma antibody clone 26D9
B12: 32E8 (antibody, V domains shown)
VH: QVTLKESGPGILQPSQTLSLTCSFSGFSLSTSGMGVGWIRQPSGKGLEWLALIWWDDVKRYHPALKSRLTISKDTSSSQVFLKIASVDTADTATYYCARIAEVTGQVGLHYAMDYWGQGTSVTVSS
VL: QTVLTQSPAIMSASLGERVTMTCTASSSVNSSSLHWYQQKPGSSPKLWIYTTSNLASGVPARFSGSGSGTSYSLTISSMEAEDAATYYCHQFHRSPFTFGSGTKLEIK
notes: Murine hybridoma monoclonal antibody; also called hybridoma antibody clone 32E8
B13: 23G2 (antibody, V domains shown)
VH: QVQLQQSGPELVRPGVSVKISCKGSGYTFTDYAIHWVKQSRAKSPEWIGIVSTDSGKTSFNQKFKGKATMTVDKSSTTAYMELVRLTSEDSAIYYCARNPYYDYDGYAMDYWGQGTSVTVSS
VL: DIQMTQSSSYLSVSLGGRVTIICKASDHINNWLAWYQQKPGNAPRLIISGATSLETGVPSRFSGSGSGKDYTLSITSLQTEDVATYYCQQYWSIPYTFGGGTKLEIK
notes: Murine hybridoma monoclonal antibody; also called hybridoma antibody clone 23G2

Target: T1, recombinant DLL3 protein (purchased from ACRO, DL3-H5255) (human, UniProt Q9NYJ7 27-479)
T1 construct: Bought; also called human DLL3 protein; hDLL3
T1 sequence (looked up): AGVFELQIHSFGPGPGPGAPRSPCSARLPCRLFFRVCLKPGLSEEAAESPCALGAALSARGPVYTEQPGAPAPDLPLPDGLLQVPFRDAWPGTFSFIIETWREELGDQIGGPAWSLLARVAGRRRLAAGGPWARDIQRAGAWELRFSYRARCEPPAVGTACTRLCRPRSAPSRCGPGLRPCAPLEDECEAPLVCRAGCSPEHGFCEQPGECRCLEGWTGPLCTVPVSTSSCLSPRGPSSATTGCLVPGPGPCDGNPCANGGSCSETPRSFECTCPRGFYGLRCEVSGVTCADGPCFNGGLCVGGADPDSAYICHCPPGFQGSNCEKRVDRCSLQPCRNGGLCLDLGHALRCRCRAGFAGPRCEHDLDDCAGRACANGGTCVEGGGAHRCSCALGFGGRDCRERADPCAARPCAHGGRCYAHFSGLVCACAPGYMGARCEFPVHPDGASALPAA
Assay: ELISA, plate-coated human DLL3 protein 1 µg/ml
Description: Six 6-week-old SPF grade female Balb/C mice (purchased from Shanghai Jihui Laboratory Animal Care Co., Ltd.) were selected and randomly divided into two groups, A and B. They were immunized with recombinant DLL3 protein (purchased from ACRO, DL3-H5255) at two-week intervals. Freund's complete adjuvant was used for the first immunization and Freund's incomplete adjuvant was used for subsequent immunizations. On days 35 and 49, blood samples were collected from the mice via orbital bleeding, and the immune serum titers of the mice were detected using conventional methods of ELISA and Flow Cytometry (FACS). ELISA detection method: DLL3 protein was diluted with PBS to a concentration of 1 μg/ml. 100 μl/well was added to a 96-well ELISA plate and incubated overnight at 4° C. The next day, the supernatant was discarded, and each well was blocked with 200 μl of 2% milk in PBS for 2 hours. After discarding the blocking solution, the wells were washed 3 times with 200 μl of PBST (0.1% Tween20). The serum to be detected was pre-diluted 100 times as the starting concentration, followed by a 3-fold gradient dilution across 11 concentrations, with 100 μl added to each well of the ELISA plate. After incubating at room temperature for 1 hour, the supernatant was discarded and the wells were washed 5 times with 200 μl of PBST (0.1% Tween20). Then, 100 μl of HRP-labeled goat anti-mouse secondary antibody (Jackson, 1:10000) was added and incubated at room temperature for 1 hour. After discarding the supernatant, the wells were washed 7 times with 200 μl of PBST (0.1% Tween20). 100 μl of TMB chromogen solution was added to each well for 10 minutes. The reaction was terminated with 2M HCl, and absorbance value at 450 nm was read with a Microplate Reader (purchased from Biotek, Elx808).
For the hybridoma clones with good binding and internalization activities identified in Example 5, the heavy chain variable region sequences were synthesized and cloned into the pFUSEss-CHIg-hG1 vector (purchased from InvivoGen, catalog number pfusess-hchgl) comprising the amino acid sequence of the human antibody IgG1 heavy chain constant region by homologous recombination.

Binder	EC50 [µg/mL]
B1	0.0108

Target: T2, human DLL3 (hDLL3) on cells (human, UniProt Q9NYJ7 27-618)
T2 construct: whole, on cells; V5-tagged); also called DLL3 on SHP-77 cells (endogenous); hDLL3 on HEK293 cells
T2 sequence (looked up): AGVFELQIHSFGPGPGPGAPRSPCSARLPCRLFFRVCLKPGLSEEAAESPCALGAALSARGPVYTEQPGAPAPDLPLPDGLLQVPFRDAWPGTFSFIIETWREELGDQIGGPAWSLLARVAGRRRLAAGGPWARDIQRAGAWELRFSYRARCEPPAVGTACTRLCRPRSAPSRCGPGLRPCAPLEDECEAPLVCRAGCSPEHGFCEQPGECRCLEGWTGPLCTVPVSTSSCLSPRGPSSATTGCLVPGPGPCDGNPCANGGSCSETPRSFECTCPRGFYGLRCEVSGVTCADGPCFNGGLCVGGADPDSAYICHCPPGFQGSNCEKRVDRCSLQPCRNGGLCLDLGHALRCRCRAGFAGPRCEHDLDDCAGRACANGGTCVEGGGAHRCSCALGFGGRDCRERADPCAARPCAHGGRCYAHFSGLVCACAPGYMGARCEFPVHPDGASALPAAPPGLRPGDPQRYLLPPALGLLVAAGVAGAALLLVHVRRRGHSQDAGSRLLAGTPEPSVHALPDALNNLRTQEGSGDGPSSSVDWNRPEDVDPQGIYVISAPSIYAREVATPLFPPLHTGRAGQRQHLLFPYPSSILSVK
Assay: flow cytometry on SHP-77 cells, 1 µg/ml antibody, kept on ice (0 H of the internalization assay)
Description: The SHP-77 cells were used to detect the internalization activity of the hybridoma antibodies obtained in Example 3-3 by using the FACS method described in Example 3-1. The detecting method is briefly described as follows: Six aliquots of 5×10⁵ SHP-77 cells each were prepared in a 96-well V-bottom plate and centrifuged at 1500 r/min for 1 minute, after which the supernatant was discarded. 1 μg/ml of the saturated antibody to be detected was added to each well (200 μL per well) and incubated on ice for 30 minutes. Then, 150 μL of PBS was added to each well, followed by centrifugation at 1500 r/min for 1 minute, and the supernatant was discarded. This step was repeated four times. The cells were resuspended in 200 μl of PBS, and one aliquot was incubated at 37° C. for various durations: 5 hours, 3 hours, 1 hour, 0.5 hours, and 15 minutes. The remaining aliquot was kept on ice. After incubation, all samples were centrifuged at 4° C., 1500 r/min for 1 minute, and the supernatant was discarded. APC-labeled goat anti-mouse IgG (Jackson, catalog number 109-605-098, diluted 1:800 in PBS) was added to each well (50 μL per well) and incubated on ice for 30 minutes. The cells were then washed four times by resuspending in 150 μL of PBS, followed by centrifugation at 1500 r/min for 1 minute and discarding the supernatant. Finally, the cells were resuspended in 100 μL of PBS and analyzed using a CytoFLEX flow cytometer (purchased from Beckman).

Binder	fluorescence value at 0 H
B2	15400
B3	20300
B4	40200
B5	36000
B6	20300
B7	22400
B8	39300
B9	27600
B10	29600
B11	15300
B12	32100
B13	20300
